# B1: FITC-dsDNA (dsDNA)
# DNA 1: ATGGAATGGAAT
# DNA 2: ATTCCATTCCAT
# B2: dsDNA (dsDNA)
# DNA 1: ATGGAATGGAAT
# DNA 2: ATTCCATTCCAT
# Tests used:
# [1] = molecular target: bovine SOD1, rhodamine B labeled (bovine, UniProt P00442 2-152); experiment: FRET; 20 mM Tris-HCl pH 7.4; 100 uM DNA, 200 uM SOD1; fitted from kinetic curve; FRET: 20 mM Tris-HCl pH 7.4, 37 C, 2 h; MST: 10 mM PBS pH 7.4, 0.05% Tween, room temperature, 5 min; SAXS: 100 uM bovine SOD1 and dsDNA, buffer not given in material; conditions: protein: commercial; tags: rhodamine B label; chain copies: 2; blunt
# [2] = molecular target: human Cu/Zn superoxide dismutase SOD1, RED-NHS labeled (human, UniProt P00441 1-154); experiment: MST; 500 nM SOD1; DNA two-fold dilutions from 20 uM; FRET: 20 mM Tris-HCl pH 7.4, 37 C, 2 h; MST: 10 mM PBS pH 7.4, 0.05% Tween, room temperature, 5 min; SAXS: 100 uM bovine SOD1 and dsDNA, buffer not given in material; conditions: protein: recombinant; tags: N-terminal His tag; RED-NHS dye; chain copies: 2; blunt
# Sequence of human Cu/Zn superoxide dismutase SOD1, RED-NHS labeled (P00441 whole entry): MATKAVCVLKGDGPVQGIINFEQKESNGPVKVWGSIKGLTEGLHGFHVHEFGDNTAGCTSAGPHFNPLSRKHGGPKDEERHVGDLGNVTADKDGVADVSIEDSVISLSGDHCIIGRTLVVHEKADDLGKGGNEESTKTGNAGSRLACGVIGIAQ
# Sequence of bovine SOD1, rhodamine B labeled (P00442 2-152): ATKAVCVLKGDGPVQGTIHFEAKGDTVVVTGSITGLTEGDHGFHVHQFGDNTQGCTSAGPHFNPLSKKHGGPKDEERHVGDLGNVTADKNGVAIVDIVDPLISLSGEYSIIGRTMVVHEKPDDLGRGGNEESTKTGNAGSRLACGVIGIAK
Binder,Kd [1] [nM],Kd [2] [nM]
B1,105,–
B2,–,155

# — paper PMC9604462, “SAXS Examinations of the Redox-Dependent Formation of a DNA-SOD1 Complex”
